Biological target: TDG N140A (human, UniProt Q13569 1-410, N140A)
Assay: fluorescence anisotropy

Sequence of TDG N140A (Q13569 whole entry N140A): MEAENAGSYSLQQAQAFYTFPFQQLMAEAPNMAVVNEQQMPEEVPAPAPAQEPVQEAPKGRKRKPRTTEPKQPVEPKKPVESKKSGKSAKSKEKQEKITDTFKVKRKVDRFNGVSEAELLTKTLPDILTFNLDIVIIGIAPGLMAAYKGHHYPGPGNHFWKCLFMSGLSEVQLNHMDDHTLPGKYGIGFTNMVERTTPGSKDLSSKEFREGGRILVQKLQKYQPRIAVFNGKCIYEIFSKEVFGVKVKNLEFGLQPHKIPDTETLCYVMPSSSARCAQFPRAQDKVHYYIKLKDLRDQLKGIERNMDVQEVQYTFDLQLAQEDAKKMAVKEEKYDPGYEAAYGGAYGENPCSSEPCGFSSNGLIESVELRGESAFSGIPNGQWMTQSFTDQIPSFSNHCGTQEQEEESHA

B1: G·fC 28mer (TR) (dsDNA)
DNA 1: GTGTCACCACTGCTCACGTACAGAGCTG
DNA 2: CAGCTCTGTACGTGAGCAGTGGTGACAC
modifications: 5-formylcytosine at position 17 of strand 1, paired with G
Kd: 4 ± 0.8 nM

B2: G·caC 28mer (TR) (dsDNA)
DNA 1: GTGTCACCACTGCTCACGTACAGAGCTG
DNA 2: CAGCTCTGTACGTGAGCAGTGGTGACAC
modifications: 5-carboxylcytosine at position 17 of strand 1, paired with G
Kd: 2.3 ± 0.6 nM

From article PMC6007377
